Test results reported in patent US20250313625A1 (ELPISCIENCE SUZHOU BIOPHARMA, published 2025).
Like-named read-outs stand apart in the source and are kept apart here. Blank lines part the entries; values can stand above or below the binder they belong to.

Experiments:
[1] = target: T1, mFc tagged human LAG3 ECD recombinant protein (human, UniProt P18627 23-450); assay: competitive FACS: mFc-LAG3 ECD binding to Raji cells (MHC II)
T1 construct: extracellular domain; purchased from Biointron; not shown: mouse IgG Fc (mFc) tag
T1 sequence (looked up): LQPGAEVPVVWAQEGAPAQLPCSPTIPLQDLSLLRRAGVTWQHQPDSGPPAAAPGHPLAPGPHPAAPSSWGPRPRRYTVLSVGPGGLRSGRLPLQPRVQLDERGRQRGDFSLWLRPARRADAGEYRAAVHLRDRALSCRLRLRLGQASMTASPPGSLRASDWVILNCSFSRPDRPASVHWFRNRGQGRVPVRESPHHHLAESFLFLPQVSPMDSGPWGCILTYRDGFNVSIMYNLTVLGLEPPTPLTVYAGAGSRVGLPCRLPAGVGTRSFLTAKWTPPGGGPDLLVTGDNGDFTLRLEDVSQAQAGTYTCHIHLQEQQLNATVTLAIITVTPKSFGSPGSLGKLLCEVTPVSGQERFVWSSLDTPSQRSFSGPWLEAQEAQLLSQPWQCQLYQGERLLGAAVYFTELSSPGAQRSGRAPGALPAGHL
Experimental: (§1) Activity of the purified chimeric antibodies to block LAG3 and MHC II interaction was determined by competitive FACS assay. […] After washing, dye labeled anti-mouse Fc 2nd antibody (Sigma) was added and incubated at 37° C. for 1 hour. Fluorescence intensity was detected.

[2] = target: T2, human LAG3 (form used in Octet, Biacore and HDX-MS not given) (human, UniProt P18627 23-450, limits assumed); assay: BLI (Octet)
T2 sequence (looked up): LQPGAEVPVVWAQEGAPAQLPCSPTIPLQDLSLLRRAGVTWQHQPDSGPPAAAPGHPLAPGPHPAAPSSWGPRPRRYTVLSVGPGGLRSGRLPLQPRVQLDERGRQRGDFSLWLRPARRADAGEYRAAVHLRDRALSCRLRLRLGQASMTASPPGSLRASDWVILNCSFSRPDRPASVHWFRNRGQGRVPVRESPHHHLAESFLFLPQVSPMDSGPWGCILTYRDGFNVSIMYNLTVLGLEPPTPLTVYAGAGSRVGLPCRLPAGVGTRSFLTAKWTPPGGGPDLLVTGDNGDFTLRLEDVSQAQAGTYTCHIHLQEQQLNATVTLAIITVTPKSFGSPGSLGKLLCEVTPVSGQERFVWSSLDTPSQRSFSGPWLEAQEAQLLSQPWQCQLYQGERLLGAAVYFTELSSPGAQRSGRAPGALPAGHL

[3] = target: T3, human LAG3, full length, stably expressed on cells (human, UniProt P18627 23-525); assay: FACS on 293F cells stably expressing human LAG3
T3 construct: whole, on cells; also called CHOK1-human LAG3
T3 sequence (looked up): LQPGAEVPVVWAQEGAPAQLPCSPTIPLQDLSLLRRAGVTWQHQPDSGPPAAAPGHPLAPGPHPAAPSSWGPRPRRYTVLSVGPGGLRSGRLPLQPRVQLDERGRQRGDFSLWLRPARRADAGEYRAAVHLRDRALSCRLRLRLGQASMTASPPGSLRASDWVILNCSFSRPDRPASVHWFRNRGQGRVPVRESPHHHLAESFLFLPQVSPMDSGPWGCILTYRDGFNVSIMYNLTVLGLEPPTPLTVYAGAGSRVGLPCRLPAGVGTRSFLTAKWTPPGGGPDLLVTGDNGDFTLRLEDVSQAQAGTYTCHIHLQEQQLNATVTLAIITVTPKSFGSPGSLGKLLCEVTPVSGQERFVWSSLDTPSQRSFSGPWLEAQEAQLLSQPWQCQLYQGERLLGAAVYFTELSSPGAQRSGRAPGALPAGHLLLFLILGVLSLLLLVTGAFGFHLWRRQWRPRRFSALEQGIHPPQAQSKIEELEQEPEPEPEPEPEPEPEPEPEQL
Experimental: (§2) Briefly the antibodies were incubated with 2×10⁵ target cells at 4° C. for 1 hour. After washing, fluorescence labeled anti-mouse IgG 2nd antibody (Life Technologies) was added and incubated at 4° C. for 1 hour. Geometric median fluorescence intensity (MFI) was detected and EC₅₀ was calculated using GraphPad Prism9.0.
(§3) MFI was detected and EC₅₀ was calculated using GraphPad Prism9.0.

[4] = target: T4, hFc tagged human LAG3 ECD recombinant protein (human, UniProt P18627 23-450); assay: competitive ELISA format II: biotin hFc-LAG3 ECD binding to coated His-FGL1
T4 construct: range 23-450; also called biotin labelled hFc tagged human LAG3 ECD; not shown: human IgG Fc tag
T4 sequence (looked up): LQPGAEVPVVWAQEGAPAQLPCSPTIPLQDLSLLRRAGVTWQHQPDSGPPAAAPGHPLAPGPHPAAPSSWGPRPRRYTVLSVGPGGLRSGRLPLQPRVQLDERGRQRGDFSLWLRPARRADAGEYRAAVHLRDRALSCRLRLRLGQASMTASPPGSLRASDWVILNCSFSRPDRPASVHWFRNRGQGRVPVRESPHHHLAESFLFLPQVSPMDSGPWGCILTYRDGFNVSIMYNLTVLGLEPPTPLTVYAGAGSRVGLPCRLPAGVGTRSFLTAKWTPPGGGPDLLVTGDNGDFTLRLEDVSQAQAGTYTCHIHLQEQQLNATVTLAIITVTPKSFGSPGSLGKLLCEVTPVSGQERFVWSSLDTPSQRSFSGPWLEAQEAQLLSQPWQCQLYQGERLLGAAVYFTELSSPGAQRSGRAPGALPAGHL
Experimental: After washing, HRP labeled anti-His 2nd antibody (Sigma) was added and incubated at 37° C. for 1 hour. Then, 100 μl/well of TMB solution (Biotechnology) was added. After incubation for 15 minutes at room temperature, the reaction was stopped by the addition of 50 μl of 1N HCl. OD 450 nm was read. […] After washing, HRP labeled anti-SA 2nd antibody (Sigma) was added and incubated at 37° C. for 1 hour. Then, 100 μl/well of TMB solution (Biotechnology) was added. After incubation for 15 minutes at room temperature, the reaction was stopped by the addition of 50 μl of 1N HCl. OD 450 nm was read. […] The competition assay of format III is a competitive FACS assay. […] After washing, dye labeled anti-His 2nd antibody (Sigma) was added and incubated at 37° C. for 1 hour. Fluorescence intensity was detected.

[5] = target: T4, hFc tagged human LAG3 ECD recombinant …; assay: competitive ELISA: excess competitor, biotin hFc-LAG3 ECD, coated BAP-050
Experimental: (§4) Competitive ELISA assay was used for epitope binning of the purified hybridoma antibodies. […] After washing, HRP labeled anti-streptavidin (SA) 2nd antibody (Sigma) was added and incubated at 37° C. for 1 hour. Then, 100 μl/well of TMB solution (Biotechnology) was added. After incubation for 15 minutes at room temperature, the reaction was stopped by the addition of 50 μl of 1N HCl. OD 450 nm was read. Competition ratio was calculated.

[6] = target: T4, hFc tagged human LAG3 ECD recombinant …; assay: competitive ELISA: excess competitor, biotin hFc-LAG3 ECD, coated BMS-986016
Experimental: as §4

[7] = target: T3, human LAG3, full length, stably …; assay: FACS on 293F-human LAG3 cells
Experimental: as §2

[8] = target: T5, cyno LAG3, full length, stably expressed on 293F cells (cyno); assay: FACS on 293F-cyno LAG3 cells, 20 nM antibody
T5 construct: whole, on cells
Experimental: as §2

[9] = target: T6, hFc tagged human LAG3 D1-D2 recombinant protein (human, UniProt P18627 23-261); assay: ELISA, coated hFc-hLAG3 D1-D2
T6 construct: range 23-261; generated by Chempartner; also called hLAG3 D1-D2; not shown: human IgG Fc tag
T6 sequence (looked up): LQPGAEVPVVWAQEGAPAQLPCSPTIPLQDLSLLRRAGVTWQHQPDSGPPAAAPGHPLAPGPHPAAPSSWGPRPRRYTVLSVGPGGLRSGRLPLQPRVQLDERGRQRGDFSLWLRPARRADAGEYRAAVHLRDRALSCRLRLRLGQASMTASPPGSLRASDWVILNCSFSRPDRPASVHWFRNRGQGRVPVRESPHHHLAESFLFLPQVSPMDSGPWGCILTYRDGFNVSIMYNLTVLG
Experimental: Binding activity of the purified hybridoma antibodies against human LAG3 was detected by ELISA assay using hFc tagged human LAG3 D1-D2 recombinant protein. Briefly the antibodies were incubated with ELISA microplate coated antigens at 37° C. for 1 hour. After washing, horseradish peroxidase (HRP) labeled anti-human IgG 2nd Ab (Sigma) was added and incubated at 37° C. for 1 hour. Then, 100 μl/well of TMB solution (Biotechnology) was added. After incubation for 15 minutes at room temperature, the reaction was stopped by the addition of 50 μl of 1N HCl. OD 450 nm was read and EC₅₀ was calculated using GraphPad Prism9.0.

[10] = target: T4, hFc tagged human LAG3 ECD recombinant …; assay: competitive FACS: hFc-LAG3 ECD binding to Raji cells (MHC II)
Experimental: Competitive FACS assay was used to determine whether the purified hybridoma antibodies can block LAG3 and MHC II interaction. […] After washing, dye labeled anti-human Fc 2nd antibody (Sigma) was added and incubated at 37° C. for 1 hour. Fluorescence intensity was detected.

[11] = target: T7, mouse LAG3, full length, stably expressed on CHOK1 cells (mouse, UniProt Q61790 24-521); assay: FACS on CHOK1 cells expressing mouse LAG3
T7 construct: whole, on cells
T7 sequence (looked up): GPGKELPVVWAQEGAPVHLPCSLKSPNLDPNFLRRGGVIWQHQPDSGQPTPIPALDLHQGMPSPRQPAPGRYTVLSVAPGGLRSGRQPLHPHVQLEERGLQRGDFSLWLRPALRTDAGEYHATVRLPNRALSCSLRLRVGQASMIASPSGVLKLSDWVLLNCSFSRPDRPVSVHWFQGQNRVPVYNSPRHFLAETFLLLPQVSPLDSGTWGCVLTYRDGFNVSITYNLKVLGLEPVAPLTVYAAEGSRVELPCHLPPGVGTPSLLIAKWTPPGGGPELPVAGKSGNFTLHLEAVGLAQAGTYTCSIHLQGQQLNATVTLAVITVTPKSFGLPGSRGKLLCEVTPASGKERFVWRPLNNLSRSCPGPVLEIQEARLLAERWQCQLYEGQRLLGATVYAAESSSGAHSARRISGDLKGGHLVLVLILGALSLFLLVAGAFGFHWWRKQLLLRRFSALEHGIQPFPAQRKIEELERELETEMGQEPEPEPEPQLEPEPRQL
Experimental: as §2

[12] = target: T3, human LAG3, full length, stably …; assay: FACS on 293F cells stably expressing human LAG3; remark: listed apart in the source
Experimental: as §2, §3

[13] = target: T1, mFc tagged human LAG3 ECD recombinant …; assay: competitive FACS: mFc-LAG3 ECD binding to Raji cells (MHC II); remark: listed apart in the source
Experimental: as §1

[14] = target: T2, human LAG3 (form used in Octet, Biacore …); assay: BLI (Octet), 1:1 fit
Experimental: The purified chimeric antibodies were characterized for binding affinity against human LAG3 using Bio-Layer Interferometry technology (Octet system). The association and dissociation curves were fit with 1:1 binding model, and the Ka/Kd/KD values for each antibody were calculated.

IC50 [1]: 5.7 nM
TOP blocking (%) [1]: 99.3%
Kd [2]: 0.121 nM
koff [2]: 3.67e-05 s⁻¹
kon [2]: 303000 M⁻¹ s⁻¹
EC50 [3]: 0.19 nM
TOP MFI [3]: 3100
IC50 [4]: 1.2 nM
TOP blocking (%) [4]: 83.2%
B1: hu023.13 (antibody, human IgG4, V domains shown)
VH: QIQLVQSGPELKKPGASVKISCKASGYTFTESPMNWVRQAPGQGFEWMGIIYTDTGEPTYAEEFKGRFVFSLDTSVSTAYLQISSLKAEDTAVYFCVSDYGSILYWYFDVWGQGTLVTVSS
VL: DIQMTQSPSSLSASVGDRVTITCKASQDVSTAVAWYQQKPGKAPKLLIYSASYRYTGVPSRFSGSGSGTDFTLTISSLQPEDFATYYCQQHYNAPPTFGQGTKLEIK
notes: humanized from 023c

% competition [5]: -2.7%
% competition [6]: 43.7%
EC50 [7]: 2.65 nM
MFI at 20 nM [8]: 125 MFI
EC50 [9]: 0.05 nM
IC50 [10]: 4.9 nM
TOP blocking (%) [10]: 84.2%
binding result [11]: no binding
B2: Antibody 023 (antibody, V domains shown)
VH: QIQLVQSGPVLKKPGETVKISCKASGYTFTESPMNWVKQAPGRGFKWMGMIYTDTGEPTYAEEFKGRFAFSLETSASTAYLQINNLKSEDTATYFCVSDYGSILYWYFDVWGTGTTVTVSS
VL: DIVMTQSHKFMSTSVGDRVSITCKASQDVSTAVAWYQQTPGQSPKLLIYSASYRYTGVPDRFTGSGSGTDFTFTISSVQAEDLAVYYCQQHYNSPPTFGAGTKLELK
notes: mouse hybridoma antibody

EC50 [12]: 2.6 nM
TOP MFI [12]: 247
IC50 [13]: 12.4 nM
TOP blocking (%) [13]: 96%
Kd [14]: 2.72 nM
koff [14]: 0.000674 s⁻¹
kon [14]: 248000 M⁻¹ s⁻¹
B3: TSR-033 (antibody, V domains shown)
VH: EVQLVQSGAEVKKPGATVKISCKASGFSIKDDYIHWVQQAPGKGLEWMGWIDAMNDDSQYSSKFQGRVTITVDTSTNTAYMKLSSLRSEDTAVYYCTYAFGGYWGQGTTVTVSS
VL: DIVMTQTPLSLSVTPGQPASISCRSSQSLVHSDSNTYLHWYLQKPGQSPQLLIYLVSNRFSGVPDRFSGSGSGTDFTLKISRVEAEDVGVYFCGQSTHVPYAFGGGTKVEIK
